Molecular target: Fas (CD95) on L1210 and L1210/DDP cells (UniProt P25446)
Assay: cell-based or functional assay

Sequence of UniProt P25446 (P25446 22-327 limits assumed): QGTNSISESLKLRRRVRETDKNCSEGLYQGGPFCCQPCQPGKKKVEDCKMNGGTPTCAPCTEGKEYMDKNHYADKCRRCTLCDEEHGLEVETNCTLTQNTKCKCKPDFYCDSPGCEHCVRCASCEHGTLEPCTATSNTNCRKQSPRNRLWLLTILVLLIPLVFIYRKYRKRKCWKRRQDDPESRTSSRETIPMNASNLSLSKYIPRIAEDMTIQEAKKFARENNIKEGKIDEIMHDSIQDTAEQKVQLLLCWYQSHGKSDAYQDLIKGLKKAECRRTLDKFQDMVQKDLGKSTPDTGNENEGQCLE

- % dead cells over background of untreated cells, L1210/0 on anti-Fas coated plates: 80%
- % dead cells over background of untreated cells, L1210/DDP on anti-Fas coated plates: 46.6%
Substance: anti-Fas antibody Jo2.2 (Pharmingen)

Reference: patent US7381413
